For two substances, Kd results are on record in publication PMC9483561.

The test addresses integrin α5β1 headpiece (α5 F1–L609/β1 Q1–E481) (UniProt P05556). The test is described as follows: fluorescence polarisation.

The term Kd denotes the concentration at which binding is half-saturated. A high value points to a looser complex. As to “fibronectin fragment Fn7–10 (P1142–T1509) (from UniProt P02751-1 1173-1540) (domain or fragment)”, the Kd was 30 nM. This counts as double-digit nanomolar.

On to “fibronectin fragment Fn9–10 (G1326–T1509) (from UniProt P02751-1 1357-1540) (domain or fragment)”, for which the Kd came to 30 nM.
